Test results from article PMC8034431.

Tests used:
[1] = target: wild-type FLT3 ligand (FLWT); assay: SEC-MALS; ligand mixed with FLT3_(D1-D5) (20% molar excess of FL_(L27D)); Superdex 200 Increase, HBS (20 mM HEPES pH 7.4, 150 mM NaCl), 0.5 ml/min, 25 °C; glycoprotein conjugate analysis; N for FLWT counts FLT3 molecules for each dimeric FLWT
[2] = target: human FLT3 domains 1-5 (FLT3_(D1-D5)) (human) (UniProt P36888); assay: as above

Row | Molecule | stoichiometry N [1] | stoichiometry N [2]
1 | human FLT3 domains 1-5 (FLT3_(D1-D5)) (from UniProt P36888 27-541) (domain or fragment) | 2 | –
2 | FLT3 ligand Leu27Asp mutant (FL_(L27D)), as produced (ligand) TQDCSFQHSPISSDFAVKIRELSDYLDQDYPVTVASNLQDEELCGGLWRLVLAQRWMERLKTVAGSKMQGLLERVNTEIHFVTKCAFQPPPSCLRFVQTNISRLLQETSEQLVALKPWITRQNFSRCLELQCQP | – | 1
